Where two headings read alike, the source gives them in different places.
What was measured:
[1] = molecular target: alpha-actin from chicken skeletal muscle (chicken) (UniProt P68139); assay: kinetic simulation
[2] = molecular target: alpha-actin from chicken skeletal muscle (chicken) (UniProt P68139); assay: actin uncapping assay
[3] = molecular target: beta-actin from bovine erythrocytes (bovine) (UniProt P60712); assay: kinetic simulation
[4] = molecular target: beta-actin from bovine erythrocytes (bovine) (UniProt P60712)
[5] = molecular target: beta-actin from bovine erythrocytes (bovine) (UniProt P60712); assay: shift of the critical concentration for actin polymerization

Row | Substance | koff [1] | half-life of a capped barbed end with PIP2 [2] | koff [3] | kon [3] | koff [4] | Kd [5]
1 | capping protein of chicken skeletal (pectoral) muscle containing the beta1 subunit (CP-beta1) (from UniProt P13127;P28497;P14315-1) (complex) | 0 s⁻¹ | 46 s | – | – | – | –
2 | capping protein of chicken kidney and brain containing the beta2 subunit (CP-beta2) (from UniProt P13127;P28497;P14315-2) (complex) | – | – | 0.00095 s⁻¹ | 3.9e+06 M⁻¹ s⁻¹ | 0.00031 s⁻¹ | 80 pM
